Measurements reported in article PMC12727980.

Columns and labels:
[1] = molecular target: T1, GST-KH (Bicc1 KH domains) (UniProt Q99MQ1); assay: EMSA; conditions: EMSA buffer 1X: 10 mM Tris-HCl pH 8.0, 100 mM KCl, 2.5 mM MgCl2, 2.5% glycerol (slightly below 1X in some mixes); about 1 mM DTT, 0.05 ug/uL yeast tRNA; 50 nM …
T1 sequence (Q99MQ1 whole entry, looked up): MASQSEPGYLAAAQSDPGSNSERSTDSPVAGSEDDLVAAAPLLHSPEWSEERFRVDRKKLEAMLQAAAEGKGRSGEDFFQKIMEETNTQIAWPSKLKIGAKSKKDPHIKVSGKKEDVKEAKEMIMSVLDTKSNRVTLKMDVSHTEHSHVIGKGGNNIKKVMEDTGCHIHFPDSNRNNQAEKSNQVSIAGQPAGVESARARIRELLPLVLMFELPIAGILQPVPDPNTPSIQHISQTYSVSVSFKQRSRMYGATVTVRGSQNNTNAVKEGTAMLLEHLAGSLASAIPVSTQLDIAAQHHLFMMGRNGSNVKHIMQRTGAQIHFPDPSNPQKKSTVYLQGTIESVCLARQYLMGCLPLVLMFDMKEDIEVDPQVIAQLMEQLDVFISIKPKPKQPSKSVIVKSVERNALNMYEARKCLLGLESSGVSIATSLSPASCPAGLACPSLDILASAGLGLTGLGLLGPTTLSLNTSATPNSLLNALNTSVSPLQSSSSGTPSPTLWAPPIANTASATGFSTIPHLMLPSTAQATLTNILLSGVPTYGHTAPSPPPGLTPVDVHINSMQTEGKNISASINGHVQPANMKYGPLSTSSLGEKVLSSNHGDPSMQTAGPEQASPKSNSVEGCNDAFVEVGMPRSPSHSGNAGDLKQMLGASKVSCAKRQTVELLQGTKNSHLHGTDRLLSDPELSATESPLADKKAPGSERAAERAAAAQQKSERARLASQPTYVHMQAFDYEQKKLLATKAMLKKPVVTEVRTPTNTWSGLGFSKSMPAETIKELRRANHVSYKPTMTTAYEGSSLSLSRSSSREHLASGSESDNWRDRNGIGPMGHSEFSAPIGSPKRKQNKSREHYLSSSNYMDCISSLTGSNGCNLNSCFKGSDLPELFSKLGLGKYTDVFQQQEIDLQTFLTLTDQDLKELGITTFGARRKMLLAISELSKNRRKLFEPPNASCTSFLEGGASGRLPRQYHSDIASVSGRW

[2] = molecular target: T1, GST-KH (Bicc1 KH domains); assay: competition; conditions: EMSA buffer 1X: 10 mM Tris-HCl pH 8.0, 100 mM KCl, 2.5 mM MgCl2, 2.5% glycerol (slightly below 1X in some mixes); about 1 mM DTT, 0.05 ug/uL yeast tRNA; 50 nM …

## GAAGAAAGACGUGACCUGAAUGAUGUGCAUCGGGUCAAGAGAGCAGAAACACGUACCGAGAUGGUGCGC / CGCACCATCTCGGTACGTG [Dand5 3'UTR66-110 WT Tag#2 annealed to Probe #2]
[1]
  Kd: 0.109 µM

## GAAGAAAGACGUGACCUGAAUGAUGUGCAUCGGGUCAAGAGAGCAGAAUGUCUGGGCAACAGGCUCAGG / CTGAGCCTGTTGCCCAGAC [Dand5 3'UTR66-110 WT Tag#1 annealed to Probe #1]
[1]
  Kd: 0.103 µM

## GAAGAAAAAGGUGACCUGAAUGAUGUGCAUCGGGUCAAGAGAGCAGAA [Dand5 3'UTR66-110 Mut untagged competitor]
[2]
  IC50: > 1 µM
